The values below come from the DeepSol protein solubility set.

The series in a line: soluble on expression in E. coli; label from the status in PepcDB or PDB records.
For “MTTNAIDGSLWLTNAVQPERKTGNQILGKDDFLKILLAQLENQDPLNPMEDKDFIAQMASFSSLEQMMNIANLMQQWMQASSRDALLRYSEWIGKTVHWQDGETMMSAVVQSVMQKDGQVTLGLDNGTTIAADAVVKVEQKG”, the “soluble on expression in E. coli” value is “not soluble”.
Under “MTTSLIHMANHLDASTEEISLNYVLLGHPHHERAQHHPSYMDMIKGAIQAIDNGTGSSKAAILKYIAQNYHVGENLPKVNNHLRSVLKKAVDSGDIEQTRGHGATGSFRMGKECEKNLQVGIPVQTKPMLMLKEVRQKLENISKAEKTKPSTSSMSTNKKGKPISTMKKRGVMSKKRSSKNKMAPKAKSHGLKKKGPATKSSGLVHKAAGAKNEAAPTTKMELRTGTRKSYC” stands “not soluble”; under “MTTSPDPYAALPKLPSFSLTSTSITDGQPLATPQVSGIMGAGGADASPQLRWSGFPSETRSFAVTVYDPDAPTLSGFWHWAVANLPANVTELPEGVGDGRELPGGALTLVNDAGMRRYVGAAPPPGHGVHRYYVAVHAVKVEKLDLPEDASPAYLGFNLFQHAIARAVIFGTYEQR”, “soluble”; under “MTTVQTSVYEPLTEPKAVSLAVRLGLFRDGAPLACREIGDGNLNLVFHIVDQETKQGVIIKQALPYAKVVGESWPLTLKRAVIESNALRTFASYVPQYVPKVYYSDESLAITVMEDLSRLQIARKGLIEGKTYPLLSQHIGEFVAKTAFYTSDFGMNQQEKKKLAQSFVNPELCKITEDLVFTDPFFDHETNNFEDELRPDVEALWRDDRLHLEAAKLKRKFLTEADVLLHGDLHTGSIFVSADETKVIDPEFAFYGPIGFDLGQFFANLLLNALSRSELERQPLFDHIDRTWDVFASVFSNLWCTESVETYAATPGLLEDVLRHAFIDAVGFAGCEVIRRTIGLAHVADLDGIEHKDERLVAKRHALRLGRRLIIERRVFTGTEDFRRLFAETEQ”, “not soluble”.
Under “MTTVRQRIDTQHRDAIHDAQLNIYGSRLATCGSDRLVKIFEVRPNGQSYPMAELVGHSGPVWKVSWAHPKYGGLLASASYDKKVIIWNEQQGRWQKAYEWAAHEASTTCVAFAPHQYGLMLASASADGDIGILRYDNSSNEWISSKIQKCHEQGVNSVCWAPGSADPAAKKRLVSAGNDKNVKIWAFDDATNEWILEKTLAGHTDFVREAAWCPVTNNGQHTIVSCGMEGNLVLFRTSNIETEEWKAKLLETAPCALYHSSFSPCGSFLSVAGDDNVITIWRENLQGQWIKVPRDNKEREGMSQAVGAPGAQR” stands “not soluble”.
Under “MTTYTSIANVIKERRSVRTFTDKAVEKDLLIELLNDATWAPNHKHREPWNCKLYIGEGRKKLVDAVLNSFTEEERAKRGKILSDRFLSTPAQIVVYMNEDPRQIQRDEDYAATCAFMQNFQLLAWERGLGCVWKSGGLNYNPLFIEGIGLTRGQRIVGILHIGYFDKAPEGKARTPITEKMEIIEG” stands “soluble”.
Regarding “MTVAQLIDIDAKKTKTSNEVYQTSTMLALLDGIYDGVISFEDLKKHGDFGIGTFDQLDGEMIAFDNEFYHLRSDGSAEKVEPEETTPFATVTFFEKEMSYTVERPMNREEVEALLHELMPSKNLFYGIRMDGTFREVRTRTVPRQEKPYTPLVEVTKSQPIFSFENTEGTLAGFWTPDYAQGIGVAGFHLHYIDDERSGGGHVFDYVIENCTIQICQKAHMHLALPETADFMAAALSRENLEDNIATAEGAE”, the “soluble on expression in E. coli” value is given as “not soluble”.
Under “MTVASTLGLNETQYATDDCLEEIINNTRAVRQDSEKTRFKLQINNFLAEVASGSLVINSDLIGSIEKRIADIDKLMSEQLSLIMHATEFQKIESAWTGLYKLVQASVTENVKYTVLHCTKKELLKDFKSASDFDQSVLFKNIYESEYGTFGGTPYSAFVGDFYFDNTPQDIDLLEHISHVAASAHAPFLSAIAPGMLSMSSFSELPYPRDLAKLFETTDYARWRSFRQTDDSRYVGLTLPQSLGRIPYGMKTIPAETFNFEEHISEDNSGKDYLWVNTAFELACRIVDAFEEYGWCAAIRGVEGGGLVKSLPAYNYVSHTGERLLQCPTEVAISDRREKELSDLGFIPLVYCKGTDFAAFFAVQSVNKARLYNTDQANANAKLSSQLQYILATSRFAHYLKVIVRDKVGSFMSRTECQTYLQNWIMQYVVASDNAGQETKARYPLREASVEVIEVPGSPGNYRAIAWIKPHFQLEGLSMSLRLVADLPSSVS” stands “not soluble”; under “MTVDSIPLNTGAQLPLFGLGTWQVKDEAELTVALRAALDAGYRLIDTAHLYQNEHIIGKVLHEYISSGKLKREDIFVTSKLPFTAHAPEDVPKCVESQLKALQLEYIDLYLIHCPFPFKHQEGSFAPLMENGELAVTEIAHIDTWRALEKLYKEGKLKALGVSNFSCNQLQALYDAAEVKPANQQVECHIYWPQQELRALCKKLGVTVTAYAPLGSPGRKAARPDGVWPEGDPLLEPIVKQLAAKYHKTAAQILIRHLTQHGISTIPKSVSPDRIVENISTFDFKLSDEDMHTLNSIETRTRLFIADFAVKHPFFPHDDIDTSKVPKVGIRLH”, “soluble”.
In the case of “MTVESVNPETRAPAAPGAPELREPPVAGGGVPLLGHGWRLARDPLAFMSQLRDHGDVVRIKLGPKTVYAVTNPELTGALALNPDYHIAGPLWESLEGLLGKEGVATANGPLHRRQRRTIQPAFRLDAIPAYGPIMEEEAHALTERWQPGKTVDATSESFRVAVRVAARCLLRGQYMDERAERLCVALATVFRGMYRRMVVPLGPLYRLPLPANRRFNDALADLHLLVDEIIAERRASGQKPDDLLTALLEAKDDNGDPIGEQEIHDQVVAILTPGSETIASTIMWLLQALADHPEHADRIRDEVEAVTGGRPVAFEDVRKLRHTGNVIVEAMRLRPAVWVLTRRAVAESELGGYRIPAGADIIYSPYAIQRDPKSYDDNLEFDPDRWLPERAANVPKYAMKPFSAGKRKCPSDHFSMAQLTLITAALATKYRFEQVAGSNDAVRVGITLRPHDLLVRPVARHHHHHH” it was “soluble”.
As for “MTVEVDEYLNFCGTINEFISAHMLCLGMSVNNYEHRYIWDEILTSKSIKIRPFPFEKTARRSISGMIIKDDYETTLAYNSNMGEKRKNFTISHELIHAMYHLDSENKVFTDTKDTLSYSLADILPEFQANIGASSILLPEPVLINELKKGTPPYFISNRYGISEQAIFMRLLQQMQASFEASYVAAYDTANKIMNGNSKNLAIELGRNLERKILYSNPFYEAITL”, the “soluble on expression in E. coli” value is recorded as “not soluble”.
For the sequence “MTVFRQENVDDYYDTGEELGSGQFAVVKKCREKSTGLQYAAKFIKKRRTKSSRRGVSREDIEREVSILKEIQHPNVITLHEVYENKTDVILILELVAGGELFDFLAEKESLTEEEATEFLKQILNGVYYLHSLQIAHFDLKPENIMLLDRNVPKPRIKIIDFGLAHKIDFGNEFKNIFGTPEFVAPEIVNYEPLGLEADMWSIGVITYILLSGASPFLGDTKQETLANVSAVNYEFEDEYFSNTSALAKDFIRRLLVKDPKKRMTIQDSLQHPWIKPKDTQQALSRKASAVNMEKFKKFAARKKWKQSVRLISLCQRLSRSFLSRSNMSVARSD”, the “soluble on expression in E. coli” value is recorded as “soluble”.
On to “MTVLSPSLPHAAGIDAALVENPWLGLRRSGRYFQNAETEALFARALGYARAGVCVHLAGPAGLGKTTLALRIAQALGRPVAFMTGNEWLGSRDFIGGEIGQTVTSVVDRYIQSVRRTEQSARIDWKESILGQAMRCGQTFIYDEFTRASPEANAALLSVLEEGVLVSTDGASRHQYIEAHPDFRVLLTSNPHEYQGVKAAPDALIDRMVTLRLEEPSAPTLAGIVALRSGLDPATARRIVDLILSVQRSGEMQAPPSMRTAILVARLAAPLRLAGRLSDAALAEIAADVLRGRGLEADAAAFEAKLAAPTPGETARLEHHHHHH”, for which the “soluble on expression in E. coli” value is on record as “not soluble”.
In the case of “MTVNKITYQNLQEEVYKLTLESGLNVYLIPKPSFKETVGVLTANFGSLHTKYTRNGCVEHYPAGIAHFLEHKLFELDKGQDAATQFTKYGAESNAFTTFDKTSFYFSTISHITNCLDILLDFVLTTNFTEESITKEKDIIKQEIEMYQDDPEYRLYQGVLSNLYPNSPLAFDIAGDYQSISQITLTDLQENHKDFYQLSNMNLVLVGQFSPQEIITYLQKNSHFTSYSQNIDRDSISLEPVIKNNSCHMTVTKPKLAIGYRKSNHMIHGSYLKEKIGLQLFFAMLLGWTSTINQDWYESGQIDDSFDIEIEVHPDFECVIISLDTTEPIAFSTQLRLLLKNALQSSDLTESHLKNVKRELYGDFLRSLDSIENLAMQFVTYLYDGKTMYLDLPSIVEELDLEDVITIGKDFLDNADTSDFVIFPKSS” it was “not soluble”; in that of “MTVPDAKRLKDLELENSRLKKLLAESLLDIGALKVVTRGKGEPGSGAGGQEMQAQTDISERRACQLFRLSRSVLCHQPRTSVQNTELQAQLVELARASALWLSPPAHSAAACWCADQLQADLPAILSRRLDGEAAEAPPQGRGGVRMPEPAERTELGLVDGFRLRRAQHWATDQMPDGGR”, “not soluble”; in that of “MTVSPVPSPKGRVLIAGATGFIGQFVATASLDAHRPTYILARPGPRSPSKAKIFKALEDKGAIIVYGLINEQEAMEKILKEHEIDIVVSTVGGESILDQIALVKAMKAVGTIKRFLPSEFGHDVNRADPVEPGLNMYREKRRVRQLVEESGIPFTYICCNSIASWPYYNNIHPSEVLPPTDFFQIYGDGNVKAYFVAGTDIGKFTMKTVDDVRTLNKSVHFRPSCNCLNINELASVWEKKIGRTLPRVTVTEDDLLAAAGENIIPQSVVAAFTHDIFIKGCQVNFSIDGPEDVEVTTLYPEDSFRTVEECFGEYIVKMEEKQPTADSAIANTGPVVGMRQVTATCA”, “soluble”.
Under “MTVYHFVGIKGTGMSPLAQILHDNGYTVQGSDIEKFIFTQTALEKRNITILPFSAENIKPGMTVIAGNAFPDTHPEIEKAMSEGIPVIRYHKFLGDYMKKFTSVAVTGAHGKTSTTGLLAHVIQNAKPTSFLIGDGTGQGNENSEYFVFEACEYRRHFLSYQPDYAIMTNIDFDHPDYFSSIDDVFDAFQEMALQVNKGIIACGDDEHLPKIHANVPVVYYGTGEENDFQARNIVKSTEGTTFDVFVRNTFYDTFYIPAYGHHNVLNSLAVIALCHYEEIDSSIIKHALKSFGGVKRRFNEKQLGDQVLIDDYAHHPTEIKVTIEAARQKYPDREIVAVFQPHTFTRTQQFLDEFAESLSGADCVYLCDIFGSARENAGKLTIGDLQGKIHNAKLIEEDDTSVLKAHDKAVLIFMGAGDIQKYMRAYENVMA” stands “not soluble”.
Turning to “MTYLLLDYFDEKFPDEKAVKEMKPFRRHRWFFKEGTTNYSHSERNKLPEGAAYAGHRTPLISGECKVYGCWPNGYDNVGEEEWAKIPTDARQKFKAALNDTAEIVVSGIECRRSFQYIDDKLLSAMDNYSELEKLPVAYSFSATKFYPSLIPFLETRWTATKLDWKNHGQNNLDLSRTHLREITLDGEGLKSVSLPESCRTISFSSTLSPELKVYSPDGGSNLTLKIELEADHVPDVGLPQLEILVLDRAVKLDLLPVTNLYPNLYYLRICGKPGYLSNISSLRNLKTLEVLSLEEIFGFTAEEFPTPGTCPLLNTLWMESIPEEAGKQIKKKYKGKITELDIRKLRKPEWLAENLDNPLRHWDGSEFVPPAKFKKAVVIYRNARRDALVAANQYLIDRDAALLQNRLEQTGKEFVIAFNKLDGKSGFIETEEREDLCAAFQVILDAVDSSVNFLGFTMNHDRIWEIMNEHRDW”, the “soluble on expression in E. coli” value was “not soluble”.
Under “MVDIEPDRVYVFTPDGHAIDLPKNATPLDFAYRVHTEIGHNCRGAKINGRIVPLNYSLQTGEQVEIITSKHGTPSRDWLEHHHHHH” stands “not soluble”.
Take “MVDSYDDSLDGEKSKTQVKRELHALVDLGERLTTLKADVLAKLPLTDALRKALAEAPKHTANIARKRHILFIGKLMRDQDQEAILVLLDQLDASTRQYNERFHNLERWRDRLIAGDDADLEKFVIEYPDADRQQLRSLIRQAQHEVARNKPPATSRKIFKYIRELDELQ”: the “soluble on expression in E. coli” value is “soluble”.
